Measurements reported in FireProtDB (doi:10.1073/pnas.90.18.8367).

B1: DNA-Binding protein, P69542 (parent)
chain: MIKVEIKPSQAQFTTRSGVSRQGKPYSLNEQLCYVDLGNEYPVLVKITLDEGQPAYAPGLYTVHLSSFKVGQFGSLMIDRLRLVPAK

Variants of: B1
Settings: Enterobacteria phage fd; pH 7; 25 °C; GdnHCl; CD; MOPS 50 mM; NaCl 100 mM; reversible: yes; structure 1VQB; whole UniProt chain shown

Point of comparison: I47L, “ddG of mutation (higher = less stable)” value 0.7 kcal/mol. Against it:
- V45C — lower, 0.1 kcal/mol
- H64C — lower, -0.5 kcal/mol
- E30F — lower, -2 kcal/mol
- F73W — lower, -0.8 kcal/mol
- V35C — higher, 1.4 kcal/mol
- V35I — the same, 0.7 kcal/mol
- V35L — higher, 2.7 kcal/mol
- V35A — higher, 2.2 kcal/mol
- V35M — higher, 1.1 kcal/mol
- F13T — the same, 0.7 kcal/mol
- R82C — higher, 1.5 kcal/mol
- C33M — higher, 3.5 kcal/mol
- C33V — lower, 0.2 kcal/mol
- A86V — lower, -0.5 kcal/mol
- A86T — the same, 0.7 kcal/mol
- L28V — lower, -1.1 kcal/mol
- F68L — higher, 4.3 kcal/mol
- I47M — higher, 2.2 kcal/mol
- I47V — higher, 2.6 kcal/mol
- I47F — higher, 2 kcal/mol
- L32Y — lower, -1 kcal/mol

Point of comparison: I6V E30F, unfolding free energy 0.71 kcal/mol. Against it:
- I6V M77I — lower, 0.34 kcal/mol
- E30F A86V — higher, 2.05 kcal/mol
- E30F A86T — higher, 1.17 kcal/mol
- L32Y R82C — lower, 0.15 kcal/mol
- F13T E30F — higher, 1.59 kcal/mol
